Legend:
PABPC (PABPC1 RRM1-4) [1] = molecular target: T1, PABPC (PABPC1 RRM1-4) (Homo sapiens, UniProt P11940 1-370); test: EMSA; RNA 5 nM; 1x binding buffer: 100 mM NaCl, 5 mM MgCl2, 0.5 mM EDTA, 0.01% NP-40, 0.1 mg/mL BSA (from 10x stock), 5% glycerol from RNA mix plus glycerol/PBS from protein stock; pH not stated; 15 min at room temperature; 6% native gel with 0.01% Triton X-100 at 4 C; details: protein: commercial; tags: N-terminal 6xHis-SUMO; label: 3' Cy5
PABPC (PABPC1 RRM1-4) [2] = molecular target: T1, PABPC (PABPC1 RRM1-4); test: EMSA; RNA 10 nM; 1x binding buffer: 100 mM NaCl, 5 mM MgCl2, 0.5 mM EDTA, 0.01% NP-40, 0.1 mg/mL BSA (from 10x stock), 5% glycerol from RNA mix plus glycerol/PBS from protein stock; pH not stated; 15 min at room temperature; 6% native gel with 0.01% Triton X-100 at 4 C; details: protein: commercial; tags: N-terminal 6xHis-SUMO; label: 3' Cy5

T1 sequence (P11940 1-370): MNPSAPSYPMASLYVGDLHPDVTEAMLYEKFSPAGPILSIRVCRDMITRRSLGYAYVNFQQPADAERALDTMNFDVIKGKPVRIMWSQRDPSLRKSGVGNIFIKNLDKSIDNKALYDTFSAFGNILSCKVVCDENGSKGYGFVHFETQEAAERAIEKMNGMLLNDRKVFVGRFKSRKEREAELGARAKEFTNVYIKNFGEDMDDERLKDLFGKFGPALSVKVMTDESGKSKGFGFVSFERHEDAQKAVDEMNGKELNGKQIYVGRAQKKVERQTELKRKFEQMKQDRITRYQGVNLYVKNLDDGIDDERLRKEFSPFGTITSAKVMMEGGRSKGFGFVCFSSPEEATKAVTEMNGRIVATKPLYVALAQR

Row | Binder | Kd (PABPC (PABPC1 RRM1-4) [1]) [nM] | Kd (PABPC (PABPC1 RRM1-4) [2]) [nM]
1 | AAAAAAAAAAAAAAA (XNA, 2'-O-methyl and phosphorothioate on the first three nucleotides (mA*mA*mA*A12)) [3NT Mod poly(A)15] | 54 | 
2 | AAAAAAAAAAAAAAA (ssRNA) [unmodified poly(A)15] |  | 110
3 | AAAAAAAAAAAAAAA (XNA, 2'-O-methyl and phosphorothioate on all 15 nucleotides) [fully modified poly(A)15] | 85 | 

Reference: PMC11834087, “Use of polyadenosine tail mimetics to enhance mRNA expression from genes associated with haploinsufficiency disorders”
